Patent publication US20210277137A1 (AbbVie / Abbott, published 2021)
Each block holds one binder with its values, some of them ahead of it.

How the values were obtained:
[1] = target: T1, CD40-human Fc (huFc) fusion protein (Creative BioMart) (human, UniProt P25942 21-193); experiment: competition ELISA: antibody titrated into 1 µg/mL CD40-huFc, mixture added to plate coated with HA-tagged CD40L, bound CD40-huFc detected with HRP anti-human Fc; blocked ligand: CD40L
T1 construct: bought; also called CD40-huFc; not shown: human Fc
T1 sequence (P25942 21-193 limits assumed): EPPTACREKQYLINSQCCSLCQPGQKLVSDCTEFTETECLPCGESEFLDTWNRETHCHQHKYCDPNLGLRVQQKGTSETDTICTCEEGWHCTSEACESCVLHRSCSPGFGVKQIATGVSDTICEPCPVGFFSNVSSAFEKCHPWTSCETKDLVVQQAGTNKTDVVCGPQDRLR
Text: (§1) After development with TMB (3, 3′, 5, 5′-tetramethylbenzidine) substrate, the plates were read at OD₄₅₀.

human CD40 on cells [2] = target: T2, human CD40 on cells (human, UniProt P25942 21-277); experiment: cell-based or functional assay
T2 sequence (P25942 21-277 limits assumed): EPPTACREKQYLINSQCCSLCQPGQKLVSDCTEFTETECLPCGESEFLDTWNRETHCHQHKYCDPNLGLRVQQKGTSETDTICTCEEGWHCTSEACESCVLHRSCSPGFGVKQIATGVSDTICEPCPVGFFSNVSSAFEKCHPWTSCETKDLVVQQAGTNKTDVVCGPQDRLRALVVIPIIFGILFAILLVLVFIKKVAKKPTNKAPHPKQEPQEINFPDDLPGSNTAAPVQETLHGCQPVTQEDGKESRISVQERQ

[3] = target: T1, CD40-human Fc (huFc) fusion protein …; experiment: ELISA: 1 µg/mL CD40-huFc with control huIgG1 on plate coated or not coated with HA-tagged CD40L, detection with HRP anti-human Fc
Text: as §1

[4] = target: T3, soluble cynomolgus (cyno) CD40 (Creative BioMart, cat #CD40-8824C) (cynomolgus, UniProt G7PG38 21-193); experiment: SPR (BIAcore T200); antibody captured by anti-Fc; soluble CD40 injected
T3 construct: extracellular domain; also called Cynomolgus CD40
Protocol: (§2) CD40 binding kinetics was analyzed by BIAcore assay with a BIAcore T200 instrument. Briefly, a goat anti-mouse Fc antibody (Pierce, cat #31170) or goat anti-human Fc (Pierce, cat #31125) was immobilized on a CM5 sensor chip, followed by capture of the anti-CD40 antibodies on the test surface.

[5] = target: soluble form of the extracellular domain of human CD40 (Creative BioMart, cat #CD402221H) (human, UniProt P25942 21-193); experiment: as above
Sequence of soluble form of the extracellular domain of human CD40 (Creative BioMart, cat #CD402221H) (P25942 21-193 limits assumed): as the sequence (P25942 21-193 limits assumed) above
Protocol: as §2

[6] = target: T1, CD40-human Fc (huFc) fusion protein …; experiment: ELISA: antibody titrated into 1 µg/mL CD40-huFc, mixture added to plate coated with HA-tagged CD40L, bound complex detected with HRP anti-human Fc; half-maximal enhancement of the signal of CD40-huFc on CD40L
Text: as §1

[7] = target: T4, Alexa Fluor 488-conjugated soluble human CD40 protein (human, UniProt P25942 21-193, limits assumed, Alexa Fluor 488 conjugate (sites not given)); experiment: flow cytometry: antibody titrated into 1 µg/mL Alexa Fluor 488-conjugated soluble human CD40 on CD40L+ Jurkat cells; half-maximal enhancement of the binding of CD40 to cell-surface CD40L
T4 construct: also called fluorochrome-conjugated human CD40
T4 sequence (P25942 21-193 limits assumed): as above

human CD40 on cells [8] = target: T2, human CD40 on cells; experiment: cell-based or functional assay; remark: listed apart in the source
[9] = target: T5, human FcγRIIB (CD32b) on CHO cells (human, UniProt P31994 43-310); experiment: flow cytometry on CHO cells stably expressing human FcγRIIB (CD32b), detection with fluorescence-conjugated anti-human F(ab')2 secondary antibody
T5 construct: whole, on cells
T5 sequence (looked up): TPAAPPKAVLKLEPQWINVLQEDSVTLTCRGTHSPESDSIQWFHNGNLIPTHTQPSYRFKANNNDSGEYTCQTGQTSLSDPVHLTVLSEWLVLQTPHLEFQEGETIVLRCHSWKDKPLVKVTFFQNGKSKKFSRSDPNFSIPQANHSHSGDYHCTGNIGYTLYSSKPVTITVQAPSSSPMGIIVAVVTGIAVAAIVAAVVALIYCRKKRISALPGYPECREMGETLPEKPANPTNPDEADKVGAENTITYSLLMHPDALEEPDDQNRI
Protocol: (§3) Increasing amounts of anti-CD40 human IgG₁ antibodies and their Fc variants were incubated with CHO cells stably expressing different human Fcγ receptors, including FcγRI (CD64), FcγRIIA (CD32a), FcγRIIB (CD32b), and FcγRIIIA (CD16) with either F or V polymorphism. The binding was detected with a fluorescence-conjugated anti-human F(ab′)2 specific secondary antibody (Jackson ImmunoResearch).

[10] = target: T6, human FcγRI (CD64) on CHO cells (human, UniProt P12314 16-374); experiment: flow cytometry on CHO cells stably expressing human FcγRI (CD64), detection with fluorescence-conjugated anti-human F(ab')2 secondary antibody
T6 construct: whole, on cells
T6 sequence (P12314 16-374): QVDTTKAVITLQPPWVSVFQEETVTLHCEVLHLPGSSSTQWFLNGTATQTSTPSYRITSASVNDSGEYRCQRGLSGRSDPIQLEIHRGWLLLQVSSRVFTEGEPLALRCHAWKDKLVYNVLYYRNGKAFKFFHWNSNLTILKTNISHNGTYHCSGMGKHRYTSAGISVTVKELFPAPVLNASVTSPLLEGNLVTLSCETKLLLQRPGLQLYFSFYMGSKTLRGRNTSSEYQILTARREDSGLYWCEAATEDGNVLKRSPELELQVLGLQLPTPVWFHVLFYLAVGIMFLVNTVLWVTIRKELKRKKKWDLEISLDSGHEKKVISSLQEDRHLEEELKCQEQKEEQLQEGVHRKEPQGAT
Protocol: as §3

[11] = target: T7, human FcγRIIIA (CD16) with V polymorphism on CHO cells (human, UniProt P08637 17-254); experiment: flow cytometry on CHO cells stably expressing human FcγRIIIA (CD16V), detection with fluorescence-conjugated anti-human F(ab')2 secondary antibody
T7 construct: whole, on cells; V allotype; also called CD16V
T7 sequence (P08637 17-254 F176V): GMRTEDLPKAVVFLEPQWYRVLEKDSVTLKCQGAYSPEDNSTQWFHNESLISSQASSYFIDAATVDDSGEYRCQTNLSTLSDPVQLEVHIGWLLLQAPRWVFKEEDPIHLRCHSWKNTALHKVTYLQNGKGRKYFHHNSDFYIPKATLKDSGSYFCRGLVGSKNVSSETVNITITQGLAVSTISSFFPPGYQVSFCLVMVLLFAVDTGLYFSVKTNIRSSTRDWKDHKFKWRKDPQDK
Protocol: as §3

[12] = target: T8, human FcγRIIA (CD32a) on CHO cells (human, UniProt P12318 34-317); experiment: flow cytometry on CHO cells stably expressing human FcγRIIA (CD32a), detection with fluorescence-conjugated anti-human F(ab')2 secondary antibody
T8 construct: whole, on cells
T8 sequence (looked up): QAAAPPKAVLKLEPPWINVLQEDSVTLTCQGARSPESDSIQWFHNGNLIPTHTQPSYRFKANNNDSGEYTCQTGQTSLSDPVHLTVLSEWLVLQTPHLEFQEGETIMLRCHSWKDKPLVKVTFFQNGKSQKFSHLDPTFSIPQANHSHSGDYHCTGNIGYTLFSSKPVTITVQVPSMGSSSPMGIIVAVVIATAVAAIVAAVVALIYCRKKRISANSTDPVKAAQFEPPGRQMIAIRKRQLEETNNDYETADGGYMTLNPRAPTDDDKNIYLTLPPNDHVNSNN
Protocol: as §3

[13] = target: T9, human FcγRIIIA (CD16) with F polymorphism on CHO cells (human, UniProt P08637 17-254); experiment: flow cytometry on CHO cells stably expressing human FcγRIIIA (CD16F), detection with fluorescence-conjugated anti-human F(ab')2 secondary antibody
T9 construct: whole, on cells; also called CD16F
T9 sequence (P08637 17-254): as the sequence (P08637 17-254 F176V) above, with V160F counted along it
Protocol: as §3

IC50 (read off the curve) [1]: ~0.3 µg/mL | Maximal activation (OD655) in HEK293 blue CD40 NFκB reporter cells (human CD40 on cells [2]): 0.45 OD655 | NFκB activation EC50 (SEAP, OD655) in HEK293 blue CD40 NFκB reporter cells (human CD40 on cells [2]): 0.14 µg/mL
B1: Humanized muAb8 #1 (antibody, V domains shown)
VH: EVQLVQSGAEVKKPGSSVKVSCKASGYTFTDYYINWVRQAPGQGLEWIGWIFPGSGSVYCNEQFKGRATLTVDRSTSTAYMELSSLRSEDTAVYFCASSLGKFAYWGQGTLVTVSS
VL: DIQMTQSPSSLSASVGDRVTITCKASQSVVTAVAWYQQKPGKSPKLLIYSASNRYTGVPSRFSGSGSGTDFTLTISSLQPEDFATYFCQQYSSYPYTFGGGTKVEIK
notes: human IgG1 constant region (natural variants D356E and L358M) and kappa light chain; also called huAb8-1

IC50 (read off the curve) [1]: ~0.3 µg/mL | Maximal activation (OD655) in HEK293 blue CD40 NFκB reporter cells (human CD40 on cells [2]): 0.46 OD655 | NFκB activation EC50 (SEAP, OD655) in HEK293 blue CD40 NFκB reporter cells (human CD40 on cells [2]): 0.07 µg/mL
B2: Humanized muAb8 #3 (antibody, V domains shown)
VH: EVQLVQSGAEVKKPGSSVKVSCKASGYTFTDYYINWVRQAPGQGLEWIGWIFPGSGSVYCNEQFKGRVTITVDKSTSTAYMELSSLRSEDTAVYYCASSLGKFAYWGQGTLVTVSS
VL: DIQMTQSPSSLSASVGDRVTITCKASQSVVTAVAWYQQKPGKSPKLLIYSASNRYTGVPSRFSGSGSGTDFTLTISSLQPEDFATYFCQQYSSYPYTFGGGTKVEIK
notes: human IgG1 constant region (natural variants D356E and L358M) and kappa light chain; also called huAb8-3

binding result [3]: binds
B3: HA-tagged CD40L (R&D Systems) (ligand)
chain: ENSFEMQKGDQNPQIAAHVISEASSKTTSVLQWAEKGYYTMSNNLVTLENGKQLTVKRQGLYYIYAQVTFCSNREASSQAPFIASLCLKSPGRFERILLRAANTHSSAKPCGQQSIHLGGVFELQPGASVFVNVTDPSQVSHGTGFTSFGLLKL
notes: bought; not shown: HA tag

Kd [4]: 150 nM | koff [4]: 0.25 s⁻¹ | Kd [5]: 170 nM | koff [5]: 0.22 s⁻¹ | kon [5]: 1.3e+06 M⁻¹ s⁻¹ | EC50 (read off the curve) [6]: ~1 µg/mL | EC50 (read off the curve) [7]: ~4 µg/mL | NFκB activity EC50; HEK293 blue CD40 reporter cells co-cultured with CHO cells expressing CD16F (human CD40 on cells [8]): 0.39 nM | NFκB activity EC50; HEK293 blue CD40 reporter cells co-cultured with CHO cells expressing CD16V (human CD40 on cells [8]): 0.3 nM | NFκB activity EC50; HEK293 blue CD40 reporter cells co-cultured with CHO cells expressing CD32a (human CD40 on cells [8]): 0.08 nM | NFκB activity EC50; HEK293 blue CD40 reporter cells co-cultured with CHO cells expressing CD32b (human CD40 on cells [8]): 0.07 nM | NFκB activity EC50; HEK293 blue CD40 reporter cells co-cultured with CHO cells expressing CD64 (human CD40 on cells [8]): 0.01 nM | NFκB activity EC50; HEK293 blue CD40 reporter cells co-cultured with FcγR negative CHO cells (human CD40 on cells [8]): 0.72 nM
B4: Humanized muAb9 A2I (antibody, human IgG1, kappa)
heavy: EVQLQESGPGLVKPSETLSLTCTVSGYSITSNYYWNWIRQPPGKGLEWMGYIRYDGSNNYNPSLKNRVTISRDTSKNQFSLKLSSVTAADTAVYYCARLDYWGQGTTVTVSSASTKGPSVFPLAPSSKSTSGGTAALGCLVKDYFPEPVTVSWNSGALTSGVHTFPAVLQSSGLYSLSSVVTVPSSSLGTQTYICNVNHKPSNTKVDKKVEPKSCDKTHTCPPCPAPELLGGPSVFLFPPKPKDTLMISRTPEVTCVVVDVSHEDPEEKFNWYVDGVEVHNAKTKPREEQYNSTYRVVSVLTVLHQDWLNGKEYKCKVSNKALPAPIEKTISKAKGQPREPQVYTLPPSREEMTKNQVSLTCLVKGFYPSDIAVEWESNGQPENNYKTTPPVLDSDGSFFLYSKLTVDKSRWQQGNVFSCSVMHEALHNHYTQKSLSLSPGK
light: DIVMTQTPLSLSVTPGQPASISCRSSQSLENTNGNTFLNWYLQKPGQSPQLLIYRVSNRFSGVPDRFSGSGSGTDFTLKISRVEAEDVGVYYCLQVTHVPFTFGQGTKLEIKRTVAAPSVFIFPPSDEQLKSGTASVVCLLNNFYPREAKVQWKVDNALQSGNSQESVTEQDSKDSTYSLSSTLTLSKADYEKHKVYACEVTHQGLSSPVTKSFNRGEC
notes: human IgG1 V273E/kappa; also called huAb9 A2I; huAb9 A2I (huIgG1 V273E)

binding result [9]: binds | EC50 (read off the curve) [10]: ~0.5 µg/mL | binding result [11]: binds | binding result [12]: binds
B5: huAb9-5 human IgG1 V273E variant (antibody)
heavy: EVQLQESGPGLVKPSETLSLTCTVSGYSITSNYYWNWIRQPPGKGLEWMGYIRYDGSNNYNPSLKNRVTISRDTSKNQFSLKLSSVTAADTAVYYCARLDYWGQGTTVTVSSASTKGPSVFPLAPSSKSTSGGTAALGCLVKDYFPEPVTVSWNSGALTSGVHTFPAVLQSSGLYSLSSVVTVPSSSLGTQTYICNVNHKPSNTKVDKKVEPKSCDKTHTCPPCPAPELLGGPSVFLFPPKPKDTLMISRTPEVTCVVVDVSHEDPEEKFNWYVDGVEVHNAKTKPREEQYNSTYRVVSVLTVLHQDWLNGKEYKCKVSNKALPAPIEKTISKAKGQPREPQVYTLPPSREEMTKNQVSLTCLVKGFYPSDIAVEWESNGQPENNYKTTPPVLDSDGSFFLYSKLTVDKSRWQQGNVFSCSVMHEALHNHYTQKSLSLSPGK
light: DAVMTQTPLSLSVTPGQPASISCRSSQSLENTNGNTFLNWYLQKPGQSPQLLIYRVSNRFSGVPDRFSGSGSGTDFTLKISRVEAEDVGVYYCLQVTHVPFTFGQGTKLEIKRTVAAPSVFIFPPSDEQLKSGTASVVCLLNNFYPREAKVQWKVDNALQSGNSQESVTEQDSKDSTYSLSSTLTLSKADYEKHKVYACEVTHQGLSSPVTKSFNRGEC
notes: also called huAb9-5 V273E

Maximal activation (OD655) in HEK293 blue CD40 NFκB reporter cells (human CD40 on cells [2]): 0.67 OD655 | NFκB activation EC50 (SEAP, OD655) in HEK293 blue CD40 NFκB reporter cells (human CD40 on cells [2]): 1.13 µg/mL | binding result [9]: no binding (tested: 100 µg/mL) | binding result [13]: binds | EC50 (read off the curve) [10]: ~0.5 µg/mL | EC50 (read off the curve) [6]: ~0.2 µg/mL | binding result [11]: binds | binding result [12]: binds
B6: Humanized muAb9 #5 (antibody, human IgG1, kappa)
heavy: not shown
light: DAVMTQTPLSLSVTPGQPASISCRSSQSLENTNGNTFLNWYLQKPGQSPQLLIYRVSNRFSGVPDRFSGSGSGTDFTLKISRVEAEDVGVYYCLQVTHVPFTFGQGTKLEIKRTVAAPSVFIFPPSDEQLKSGTASVVCLLNNFYPREAKVQWKVDNALQSGNSQESVTEQDSKDSTYSLSSTLTLSKADYEKHKVYACEVTHQGLSSPVTKSFNRGEC
notes: wild type human IgG1/kappa; also called huAb9-5; huAb9-5 with wild type huIgG1

binding result [9]: binds | EC50 (read off the curve) [10]: ~0.4 µg/mL | binding result [12]: binds
B7: huAb9-5 human IgG1 V273Y variant (antibody)
heavy: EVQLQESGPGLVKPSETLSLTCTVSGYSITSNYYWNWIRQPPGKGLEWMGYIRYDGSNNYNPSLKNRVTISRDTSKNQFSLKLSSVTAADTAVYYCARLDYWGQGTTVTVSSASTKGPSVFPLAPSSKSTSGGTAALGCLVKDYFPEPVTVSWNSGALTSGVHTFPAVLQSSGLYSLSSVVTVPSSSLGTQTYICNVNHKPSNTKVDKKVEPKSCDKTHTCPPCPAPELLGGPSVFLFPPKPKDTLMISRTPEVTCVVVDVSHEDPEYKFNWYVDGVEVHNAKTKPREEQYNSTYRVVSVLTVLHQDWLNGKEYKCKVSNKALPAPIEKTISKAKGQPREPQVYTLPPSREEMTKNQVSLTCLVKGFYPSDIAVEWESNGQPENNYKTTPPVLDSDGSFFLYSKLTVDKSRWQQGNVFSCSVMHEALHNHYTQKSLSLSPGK
light: DAVMTQTPLSLSVTPGQPASISCRSSQSLENTNGNTFLNWYLQKPGQSPQLLIYRVSNRFSGVPDRFSGSGSGTDFTLKISRVEAEDVGVYYCLQVTHVPFTFGQGTKLEIKRTVAAPSVFIFPPSDEQLKSGTASVVCLLNNFYPREAKVQWKVDNALQSGNSQESVTEQDSKDSTYSLSSTLTLSKADYEKHKVYACEVTHQGLSSPVTKSFNRGEC
notes: also called huAb9-5 V273Y
